The values below come from patent US20030091584A1 (AstraZeneca / MedImmune, published 2003).

The target in assay [1] is F protein of wild type RSV A/Long (respiratory syncytial virus strain …, UniProt P12568 26-574). As to the kind of experiment: cell-based or functional assay.
Assay [2] has as its target T1, RSV F glycoprotein (NUF4) (respiratory syncytial virus).
T1 chain 1: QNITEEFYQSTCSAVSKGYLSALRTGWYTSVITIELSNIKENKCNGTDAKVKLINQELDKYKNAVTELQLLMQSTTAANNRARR
T1 chain 2: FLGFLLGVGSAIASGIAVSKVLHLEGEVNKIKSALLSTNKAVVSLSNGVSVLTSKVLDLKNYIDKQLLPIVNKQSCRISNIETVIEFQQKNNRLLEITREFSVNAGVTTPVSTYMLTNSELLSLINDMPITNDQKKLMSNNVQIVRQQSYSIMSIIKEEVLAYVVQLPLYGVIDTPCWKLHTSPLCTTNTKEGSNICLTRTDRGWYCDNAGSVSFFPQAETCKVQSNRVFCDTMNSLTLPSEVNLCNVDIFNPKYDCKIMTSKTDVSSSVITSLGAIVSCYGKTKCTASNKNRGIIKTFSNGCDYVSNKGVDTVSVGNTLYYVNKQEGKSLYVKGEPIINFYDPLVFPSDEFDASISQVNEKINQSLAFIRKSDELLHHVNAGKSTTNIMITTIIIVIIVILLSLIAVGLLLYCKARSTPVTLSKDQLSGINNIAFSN
As to the kind of experiment: BIAcore, mAb vs NUF4 (1:1). (In general: Surface plasmon resonance follows binding to a sensor surface in real time, without labels.)

Assay [3] concerns the target T1, RSV F glycoprotein (NUF4). As to the kind of experiment: BIAcore, mAb vs NUF4 (2:1).
Assay [4] concerns the target RSV F protein (immobilized on the BIAcore sensor chip) (respiratory syncytial virus). Description: BIAcore, immobilized F protein.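 Further: fab fragments as analytes binding F protein coupled to the chip via EDC/NHS chemistry, with blank surface signal subtracted.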

Broadly, the Kd is the constant that tells how readily two partners part at equilibrium. Low values mean a tighter complex, high ones a looser complex. The term koff denotes a measure of how fast the partners let go of each other. In general, kon refers to the rate constant with which the complex forms. A high value points to faster complex formation.

B1: A1e9 (monoclonal antibody) (antibody, V domains shown)
VH: QVTLRESGPALVKPTQTLTLTCTFSGFSLSTPGMSVGWIRQPPGKALEWLADIWWDGKKHYNPSLKDRLTISKDTSKNQVVLKVTNMDPADTATYYCARDMIFNWYFDVWGQGTTVTVSS
VL: DIQMTQSPSTLSASVGDRVTITCSLSSRVGYMHWYQQKPGKAPKLLIYDTFKLSSGVPSRFSGSGSGTEFTLTISSLQPDDFATYYCFQGSGYPFTFGGGTKVEIK
notes: mAb with framework and constant regions of SYNAGIS; also called Ale9
As to B1, in assay [1], the “Fold Difference (Control IC50)” value turned out to be 8 fold; the “Fold Difference (Curve IC50)” value amounted to 7 fold; the “Mean IC50 (Control), RSV microneutralization” value (“Mean IC50 (Control)” below) was 0.0645 µg/mL; the “Mean IC50 (Curve), RSV microneutralization” value (shortened to “Mean IC50 (Curve)”) is 0.0625 µg/mL. In assay [2], binding was characterised by a dissociation constant (Kd) of 0.69 nM, the koff was 0.000584 s⁻¹, the kon was 843000 M⁻¹ s⁻¹ and the “number in parentheses after KD (fold against SYNAGIS = 1)” value (shortened to “number … (fold against SYNAGIS = 1)”) was 13 fold. Besides, in assay [3], the equilibrium dissociation constant (Kd) came out at 4.22 nM, the koff was determined as 0.00139 s⁻¹, the on-rate (kon) was 329000 M⁻¹ s⁻¹ and the “number … (fold against SYNAGIS = 1)” value is 74 fold.

B2: 1X-493L1FR (Fab fragment) (Fab, V domains shown)
VH: QVTLRESGPALVKPTQTLTLTCTFSGFSLSTSGMSVGWIRQPPGKALEWLADIWWDDKKDYNPSLKSRLTISKDTSKNQVVLKVTNMDPADTATYYCARSMITNWYFDVWGAGTTVTVSS
VL: DIQMTQSPSTLSASVGDRVTITCSASSSVGYMHWYQQKPGKAPKLLIYDTSKLASGVPSRFSGSGSGTEFTLTISSLQPDDFATYYCFQGSGYPFTFGGGTKLEIK
As to B2, in assay [4], the koff is 0.00065 s⁻¹ and the kon stood at 185000 M⁻¹ s⁻¹.

B3: P12f2 (monoclonal antibody) (antibody, V domains shown)
VH: QVTLRESGPALVKPTQTLTLTCTFSGFSLSTPGMSVGWIRQPPGKALEWLADIWWDDKKHYNPSLKDRLTISKDTSKNQVVLKVTNMDPADTATYYCARDMIFNFYFDVWGAGTTVTVSS
VL: DIQMTQSPSTLSASVGDRVTITCSLSSRVGYMHWYQQKPGKAPKLLIYDTFYLSSGVPSRFSGSGSGTEFTLTISSLQPDDFATYYCFQGSGYPFTFGGGTKVEIK
notes: mAb with framework and constant regions of SYNAGIS; also called Pf12
As to B3, in assay [1], the “Fold Difference (Control IC50)” value was 24 fold; the “Fold Difference (Curve IC50)” value amounted to 20 fold; the “Mean IC50 (Control)” value turned out to be 0.0223 µg/mL; the “Mean IC50 (Curve)” value was 0.0231 µg/mL. Besides, in assay [2], binding was characterised by a dissociation constant (Kd) of 0.33 nM, the koff turned out to be 0.000178 s⁻¹, the on-rate (kon) was determined as 541000 M⁻¹ s⁻¹ and the “number … (fold against SYNAGIS = 1)” value amounted to 26 fold. In addition, in assay [3], the Kd stood at 0.84 nM, the koff worked out at 0.000236 s⁻¹, the kon was 282000 M⁻¹ s⁻¹ and the “number … (fold against SYNAGIS = 1)” value worked out at 371 fold.

B4: P11d4 (monoclonal antibody) (antibody, V domains shown)
VH: QVTLRESGPALVKPTQTLTLTCTFSGFSLSTPGMSVGWIRQPPGKALEWLADIWWDGKKHYNPSLKDRLTISKDTSKNQVVLKVTNMDPADTATYYCARDMIFNWYFDVWGQGTTVTVSS
VL: DIQMTQSPSTLSASVGDRVTITCSPSSRVGYMHWYQQKPGKAPKLLIYDTMRLASGVPSRFSGSGSGTEFTLTISSLQPDDFATYYCFQGSGYPFTFGGGTKVEIK
notes: mAb with framework and constant regions of SYNAGIS
Consider B4, for which, in assay [1], the “Fold Difference (Control IC50)” value came out at 19 fold; the “Fold Difference (Curve IC50)” value is 21 fold; the “Mean IC50 (Control)” value came to 0.0289 µg/mL; the “Mean IC50 (Curve)” value came to 0.0217 µg/mL. In assay [2], the Kd came to 0.85 nM, the dissociation rate constant (koff) was found to be 0.000766 s⁻¹, the on-rate (kon) amounted to 904000 M⁻¹ s⁻¹ and the “number … (fold against SYNAGIS = 1)” value amounted to 10 fold. Also, in assay [3], the Kd was found to be 8.55 nM, the koff is 0.00313 s⁻¹, the kon was 366000 M⁻¹ s⁻¹ and the “number … (fold against SYNAGIS = 1)” value is 36 fold.

B5: A17d4 (Fab fragment) (Fab, V domains shown)
VH: QVTLRESGPALVKPTQTLTLTCTFSGFSLSTAGMSVGWIRQPPGKALEWLADIWWDGKKSYNPSLKDRLTISKDTSKNQVVLKVTNMDPADTATYYCARDMIFNFYFDVWGQGTTVTVSS
VL: DIQMTQSPSTLSASVGDRVTITCLPSSRVGYMHWYQQKPGKAPKLLIYDTMYQASGVPSRFSGSGSGTEFTLTISSLQPDDFATYYCFQFSGYPFTFGGGTKLEIK
For B5, in assay [1], the “Fold Difference (Control IC50)” value stood at 31 fold; the “Fold Difference (Curve IC50)” value is 25 fold; the “Mean IC50 (Control)” value was 0.0171 µg/mL; the “Mean IC50 (Curve)” value was determined as 0.0179 µg/mL.

B6: A8c7 (monoclonal antibody) (antibody, V domains shown)
VH: QVTLRESGPALVKPTQTLTLTCTFSGFSLSTAGMSVGWIRQPPGKALEWLADIWWDDKKSYNPSLKDRLTISKDTSKNQVVLKVTNMDPADTATYYCARDMIFNWYFDVWGQGTTVTVSS
VL: DIQMTQSPSTLSASVGDRVTITCSASSRVGYMHWYQQKPGKAPKLLIYDTRYQSSGVPSRFSGSGSGTEFTLTISSLQPDDFATYYCFQGSGYPFTFGGGTKLEIK
notes: as for B4
With B6, in assay [1], the “Fold Difference (Control IC50)” value stood at 14 fold; the “Fold Difference (Curve IC50)” value was 13 fold; the “Mean IC50 (Control)” value is 0.0383 µg/mL; the “Mean IC50 (Curve)” value worked out at 0.0337 µg/mL. Further, in assay [2], the Kd stood at 0.65 nM, the koff is 0.000535 s⁻¹, the kon stood at 825000 M⁻¹ s⁻¹ and the “number … (fold against SYNAGIS = 1)” value came to 13 fold. Also, in assay [3], the Kd came to 2.65 nM, the koff is 0.00114 s⁻¹, the kon was determined as 430000 M⁻¹ s⁻¹ and the “number … (fold against SYNAGIS = 1)” value amounted to 118 fold.

B7: P12f4 (monoclonal antibody) (antibody, V domains shown)
VH: QVTLRESGPALVKPTQTLTLTCTFSGFSLSTPGMSVGWIRQPPGKALEWLADIWWDGKKHYNPSLKDRLTISKDTSKNQVVLKVTNMDPADTATYYCARDMIFNFYFDVWGQGTTVTVSS
VL: DIQMTQSPSTLSASVGDRVTITCSLSSRVGYMHWYQQKPGKAPKLLIYDTRGLPSGVPSRFSGSGSGTEFTLTISSLQPDDFATYYCFQGSGYPFTFGGGTKVEIK
notes: as for B4
For the molecule B7, in assay [1], the “Fold Difference (Control IC50)” value was found to be 23 fold; the “Fold Difference (Curve IC50)” value was 19 fold; the “Mean IC50 (Control)” value stood at 0.0235 µg/mL; the “Mean IC50 (Curve)” value was 0.0242 µg/mL. Besides, in assay [2], the Kd was found to be 0.24 nM, the off-rate constant (koff) was 0.000229 s⁻¹, the kon was 943000 M⁻¹ s⁻¹ and the “number … (fold against SYNAGIS = 1)” value is 36 fold. In assay [3], the Kd stood at 2.33 nM, the dissociation rate constant (koff) was 0.000636 s⁻¹, the kon worked out at 273000 M⁻¹ s⁻¹ and the “number … (fold against SYNAGIS = 1)” value came out at 134 fold.

B8: A12a6 (monoclonal antibody) (antibody, V domains shown)
VH: QVTLRESGPALVKPTQTLTLTCTFSGFSLSTAGMSVGWIRQPPGKALEWLADIWWDGKKDYNPSLKDRLTISKDTSKNQVVLKVTNMDPADTATYYCARDMIFNFYFDVWGQGTTVTVSS
VL: DIQMTQSPSTLSASVGDRVTITCSASSRVGYMHWYQQKPGKAPKLLIYDTFKLSSGVPSRFSGSGSGTEFTLTISSLQPDDFATYYCFQGSGYPFTFGGGTKVEIK
notes: as for B4
As to B8, in assay [1], the “Fold Difference (Control IC50)” value was found to be 15 fold; the “Fold Difference (Curve IC50)” value came to 13 fold; the “Mean IC50 (Control)” value turned out to be 0.0354 µg/mL; the “Mean IC50 (Curve)” value was found to be 0.0357 µg/mL. Moreover, in assay [2], the affinity, expressed as Kd, was 0.73 nM; the off-rate constant (koff) worked out at 0.000291 s⁻¹; the kon is 400000 M⁻¹ s⁻¹; the “number … (fold against SYNAGIS = 1)” value amounted to 12 fold. Also, in assay [3], binding was characterised by a dissociation constant (Kd) of 1.87 nM, the koff amounted to 0.000408 s⁻¹, the kon came to 218000 M⁻¹ s⁻¹ and the “number … (fold against SYNAGIS = 1)” value stood at 167 fold.

B9: A8c7 (Fab fragment) (Fab, V domains shown)
VH: QVTLRESGPALVKPTQTLTLTCTFSGFSLSTAGMSVGWIRQPPGKALEWLADIWWDDKKSYNPSLKDRLTISKDTSKNQVVLKVTNMDPADTATYYCARDMIFNWYFDVWGQGTTVTVSS
VL: DIQMTQSPSTLSASVGDRVTITCSASSRVGYMHWYQQKPGKAPKLLIYDTRYQSSGVPSRFSGSGSGTEFTLTISSLQPDDFATYYCFQGSGYPFTFGGGTKLEIK
In the case of B9, in assay [1], the “Fold Difference (Control IC50)” value was 34 fold; the “Fold Difference (Curve IC50)” value came to 3 fold; the “Mean IC50 (Control)” value was determined as 0.157 µg/mL; the “Mean IC50 (Curve)” value was 0.177 µg/mL.

B10: A4B4 (Fab fragment) (Fab, V domains shown)
VH: QVTLRESGPALVKPTQTLTLTCTFSGFSLSTAGMSVGWIRQPPGKALEWLADIWWDDKKHYNPSLKDRLTISKDTSKNQVVLKVTNMDPADTATYYCARDMIFNFYFDVWGQGTTVTVSS
VL: DIQMTQSPSTLSASVGDRVTITCSASSRVGYMHWYQQKPGKAPKLLIYDTFFLDSGVPSRFSGSGSGTEFTLTISSLQPDDFATYYCFQGSGYPFTFGGGTKLEIK
Consider B10, for which, in assay [1], the “Fold Difference (Control IC50)” value was determined as 13 fold; the “Fold Difference (Curve IC50)” value is 11 fold; the “Mean IC50 (Control)” value worked out at 0.0411 µg/mL; the “Mean IC50 (Curve)” value was 0.0414 µg/mL.

B11: A1h5 (Fab fragment) (Fab, V domains shown)
VH: QVTLRESGPALVKPTQTLTLTCTFSGFSLSTPGMSVGWIRQPPGKALEWLADIWWDGKKHYNPSLKDRLTISKDTSKNQVVLKVTNMDPADTATYYCARDMIFNWYFDVWGQGTTVTVSS
VL: DIQMTQSPSTLSASVGDRVTITCSLSSSVGYMHWYQQKPGKAPKLLIYDTFFHRSGVPSRFSGSGSGTEFTLTISSLQPDDFATYYCFQGSGYPFTFGGGTKLEIK
Take B11: in assay [1], the “Fold Difference (Control IC50)” value was determined as 3 fold; the “Fold Difference (Curve IC50)” value came to 2 fold; the “Mean IC50 (Control)” value was 0.176 µg/mL; the “Mean IC50 (Curve)” value was 0.194 µg/mL.
